This is an account of results in patent US12012446B2, “Epstein-Barr virus antibodies and uses thereof” (priority 2017, dated 2024).

In assay [1] the target is T1, EBV gH/gL (Epstein-Barr virus, UniProt P03212+P03231).
T1 construct: expressed in transfected cells; host or cells: CHO cells
Kind of assay: Flow cytometry of gH/gL-expressing CHO cells. The format is binding. The text has this: FIGS. 10A-10B show the comparison of murine E1D1 (mE1D1) and humanized E1D1 (hE1D1). FIG. 10A: Sequence comparison of mE1D1 and hE1D1. Alignment of heavy chain (i) and light chain (ii) variable region amino acid sequences by the Clustal W. Murine E1D1 heavy chain and light chain AA sequences are represented by SEQ ID NOs: 183 and 184, respectively, and humanized E1D1 heavy chain and light chain AA sequences are represented by SEQ ID NOs: 185 and 186, respectively. Regions of identical sequence are represented by *. Regions of similarity are represented by :. FIG. 10B: Flow cytometric analysis of mE1D1 and hE1D1 gH/gL specificity. CHO wild type cells and gH/gL-expressing CHO cells were stained with mE1 D1 and hE1 D1, followed by secondary goat anti-mouse or anti-human conjugated to AF488. Unstained cells and cells stained with secondary goat anti-mouse or anti-human conjugated to AF488 alone, were used as negative controls.
Similar to Example 4, humanized E1D1 antibody was produced and its specificity was compared to mouse E1D1 by flow cytometric analysis (FIG. 10).
Flow cytometric analysis of gp350 and gH/gL specificity was performed. CHO wild type cells and gp350 or gH/gL-expressing CHO cells were stained with primary antibodies, followed by secondary goat anti-mouse or anti-human conjugated to AF488. […]
(A flow cytometer gives signals particle by particle.)

Assay [2] has as its system EBV-eGFP infection of Raji cells. Kind of assay: EBV neutralization assay in Raji cells. The assay is classed as cell-based, Epstein-Barr virus. On the procedure: EBV neutralization assay was performed in Raji cells as previously described (47). Briefly, purified individual anti-gp350 mAbs were incubated with purified AGS-EBV-eGFP (titer calculated to infect at least 8% of HEK293 cells seeded in 100 μl of serum-free DMEM) for 2 hours at 37° C. To represent EBV infection of B cells, the pre-incubated anti-gp350 mAbs/AGS-EBV-eGFP were used to infect 5×10^5 Raji cells seeded in a 96-well plate for 2 hours at 37° C. Neutralizing 72A1 and non-neutralizing 2L10 anti-gp350 mAbs served as positive and negative controls, respectively. Infected cells were washed three times with PBS to remove any unbound viruses and antibodies. Washed, infected cells were incubated in 96-well plates at 37° C. for 48 hours post-infection and the number of eGFP+ (infected) cells was determined using flow cytometry. All dilutions were performed in quintuplicate and the assays were repeated three times. Antibody EBV neutralization activity was calculated as: % neutralization=(EBValone−EBVmAb)/(EBValone)×100.
However, this antibody was recently reported to be a mixture of both functional and non-functional antibodies (50). […] The percentage of eGFP+ cells (percent infection) was determined using flow cytometry as described (47). The nAbs 72A1 and E1D1 were used as positive controls, whereas the anti-gp350 non-neutralizing mAb 2L10 and KSHV gH/gL mAb 54A1 were used as negative controls. Because HB4, HB13, HB15, HB16, HB19, HB21, and HB23 were confirmed to be polyclonal based on isotyping and/or sequence data, they were eliminated from further consideration in the neutralization assay. HB18 was not used in neutralization experiments because it was identical to HB8.
The purified eGFP-tagged-EBV was titered in Raji cells to determine percent EBV infection using a range of volumes (50-250 μl) (FIG. 5A). Then initial neutralization of EBV was conducted in Raji cells using purified mAbs at various concentrations (12.5, 25, 50, and 100 μg/ml).
EBV-eGFP+ cells were enumerated using flow cytometry.

For assay [3], the target named is T2, EBV gp350 stably expressed on CHO cells (Epstein-Barr virus, UniProt P03200).
T2 construct: stably co-transfected with full-length pCAGGS-gp350/220 and pCI-puro vector; expressed in transfected cells; host or cells: CHO cells
As to the kind of experiment: Epitope mapping by competitive cell binding assay with biotinylated mAbs. The following applies: biotinylated antibodies. On the procedure:
To evaluate conformation epitope mapping of the selected mAbs, competitive binding assays were conducted using biotinylated mAbs. A one-step antibody biotinylation kit (MACS Miltenyi Biotec) was used to biotinylate the mAbs. Approximately 1×10^5 CHO cells that stably expressed EBV gp350 were incubated for 2 hours with serially diluted ([…]) unlabeled competitor mAbs and non-specific anti-KSHV gH/gL 54A1 mAb. After being washed with PBS, the cells were incubated for 2 hours in the presence of 1 μg/ml biotinylated mAbs. To determine maximum binding, cells in which the biotinylated mAb was added in the absence of unlabeled mAbs were included in the assay. Cells were washed with PBS, followed by incubation for 1 hour with anti-biotin AF488 at a dilution of 1:500. After the final wash in PBS, cells were resuspended in 1% paraformaldehyde and analyzed by flow cytometry as described above. Percentage of inhibition was calculated as: 100−[(% fluorescent cells with competitor mAb/% fluorescent cells without competitor mAb)×100]. The complete prevention of binding of a biotinylated mAb by its unlabeled counterpart was used as a validation of the assay, as previously described (84).
At least seven unique CD21 binding epitopes on EBV gp350 have been predicted (Table 3).

Assay [4] concerns the target T3, purified EBV gp350/220 (recombinant EBV gp350 ectodomain) (Epstein-Barr virus, UniProt P03200).
T3 construct: purified EBV gp350 ectodomain protein (AA 4-863); purchased Immune Technology Corporation
Kind of assay: Indirect ELISA on recombinant EBV gp350 ectodomain. The format is binding. Conditions: purified antibodies 10 μg/ml. On the procedure: Briefly, immunoplates (Costar 3590; Corning Incorporated) were coated with 50 μl of 0.5 μg/ml recombinant EBV gp350 ectodomain (Immune Technology Corporation) diluted in 1× phosphate buffered saline (PBS, pH 7.4) and incubated overnight at 4° C. After washing three times with 1×PBS containing 0.05% (v/v) Tween 20 (washing buffer), plates were blocked with 100 μl washing buffer containing 2% (w/v) bovine serum albumin (BSA) (blocking buffer) then incubated for 1 h at room temperature and washed as above. 100 μl of hybridoma supernatant or 50 μl of 10 μg/ml purified mAbs was added to each well (in triplicate) and incubated for 2 h at room temperature. […] The plates were washed as described above, followed by incubation with 50 μl of goat anti-mouse IgG HRP-conjugated secondary antibody (1:2,000 diluted in 1×PBS) at room temperature for 1 h. The plates were washed again and 100 μl of chromogenic substrate 2,2′-azino-bis (3-ethylbenzothiazoline-6-sulphonic acid) (ABTS, Life Science Technologies) was added. The reaction was stopped using 100 μl of ABTS peroxidase stop solution containing 5% sodium dodecyl sulfate (SDS) in water. The absorbance was read at an optical density of 405 nm using an ELISA reader (Molecular Devices). All experiments were performed in triplicate and confirmed in three independent experiments.
ELISA binding of anti-gp350 and anti-gH/gL to soluble gp350 and gH/gL proteins was performed. Soluble EBV gp350 and gH/gL proteins were used as the target antigen at 0.5 μg/ml. 1× phosphate buffered saline (PBS) was used as negative (not shown) control. Bound antibodies were detected using HRP-conjugated anti-mouse or anti-human IgG (1:2,000).

In assay [5] the target is T4, gp350 protein on gp350 expressing CHO cells (Epstein-Barr virus, UniProt P03200).
T4 construct: stably co-transfected with full-length pCAGGS-gp350/220 and pCI-puro vector; expressed in transfected cells; host or cells: CHO cells
As to the kind of experiment: Flow cytometry of CHO cells stably expressing EBV gp350. The assay is classed as binding. The following applies: concluded from flow cytometry and immunoblot. As to the method:
To assess the ability of purified anti-gp350 mAb to detect surface expression of EBV gp350 protein by flow cytometry, CHO cells that stably express EBV gp350 were harvested and stained with purified anti-gp350 (10 μg/ml), followed by AF488 goat anti-mouse IgG secondary antibody. Flow cytometric analysis was performed on a C-6 FC (BD Biosciences) and data was analyzed using FlowJo Cytometry Analysis software (FlowJo, LLC) as described (47). All the experiments were independently repeated three times.
These novel antibodies were analyzed by flow cytometric analysis for surface expression of gp350 protein on 10^6 CHO cells transfected with 1 μg of pCAGGS-gp350. gp350 expressing cells were resuspended in PBS, stained with anti-gp350 mAb, which detects the gp350 ED, followed by secondary Ab goat anti-mouse conjugated to AF488. Additionally, western blot analysis was conducted on untransfected and pCAGGS-gp350 transfected CHO lysate. Anti-gp350 mAb 72A1 was used as a positive control (1:100) and anti-gp350 hybridoma clone supernatants were used at 1:50, and anti-mouse secondary antibody was used at 1:2000.
Flow cytometric analysis of gp350 and gH/gL specificity was performed. CHO wild type cells and gp350 or gH/gL-expressing CHO cells were stained with primary antibodies, followed by secondary goat anti-mouse or anti-human conjugated to AF488. Unstained cells and cells stained with secondary goat anti-mouse or anti-human conjugated to AF488 alone, were used as negative controls.

T2 sequence (P03200 whole entry): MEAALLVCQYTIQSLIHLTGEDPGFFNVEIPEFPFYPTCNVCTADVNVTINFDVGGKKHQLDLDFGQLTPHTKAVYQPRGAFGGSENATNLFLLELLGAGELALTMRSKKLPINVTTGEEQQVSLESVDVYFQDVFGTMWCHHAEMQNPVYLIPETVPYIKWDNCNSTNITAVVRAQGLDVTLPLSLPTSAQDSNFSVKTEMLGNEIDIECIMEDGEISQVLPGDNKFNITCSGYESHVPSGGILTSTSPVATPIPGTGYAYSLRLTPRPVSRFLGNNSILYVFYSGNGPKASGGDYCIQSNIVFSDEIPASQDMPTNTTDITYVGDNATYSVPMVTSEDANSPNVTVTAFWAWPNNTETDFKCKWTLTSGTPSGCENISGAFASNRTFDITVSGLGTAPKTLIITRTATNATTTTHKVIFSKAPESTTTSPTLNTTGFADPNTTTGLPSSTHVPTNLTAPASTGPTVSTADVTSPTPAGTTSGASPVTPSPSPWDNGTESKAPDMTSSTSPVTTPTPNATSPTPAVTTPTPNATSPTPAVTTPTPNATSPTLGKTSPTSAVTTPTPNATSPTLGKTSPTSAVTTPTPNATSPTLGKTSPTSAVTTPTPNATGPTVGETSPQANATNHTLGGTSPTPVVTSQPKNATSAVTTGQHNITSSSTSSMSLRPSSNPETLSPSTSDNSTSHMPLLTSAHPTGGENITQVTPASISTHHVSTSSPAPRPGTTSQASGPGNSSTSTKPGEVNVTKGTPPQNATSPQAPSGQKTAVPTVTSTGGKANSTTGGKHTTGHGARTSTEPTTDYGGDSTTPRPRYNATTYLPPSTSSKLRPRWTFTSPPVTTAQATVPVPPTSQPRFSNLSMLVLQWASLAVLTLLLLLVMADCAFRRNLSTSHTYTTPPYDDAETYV
T4 sequence (P03200 whole entry): as above
T3 sequence (P03200 4-863): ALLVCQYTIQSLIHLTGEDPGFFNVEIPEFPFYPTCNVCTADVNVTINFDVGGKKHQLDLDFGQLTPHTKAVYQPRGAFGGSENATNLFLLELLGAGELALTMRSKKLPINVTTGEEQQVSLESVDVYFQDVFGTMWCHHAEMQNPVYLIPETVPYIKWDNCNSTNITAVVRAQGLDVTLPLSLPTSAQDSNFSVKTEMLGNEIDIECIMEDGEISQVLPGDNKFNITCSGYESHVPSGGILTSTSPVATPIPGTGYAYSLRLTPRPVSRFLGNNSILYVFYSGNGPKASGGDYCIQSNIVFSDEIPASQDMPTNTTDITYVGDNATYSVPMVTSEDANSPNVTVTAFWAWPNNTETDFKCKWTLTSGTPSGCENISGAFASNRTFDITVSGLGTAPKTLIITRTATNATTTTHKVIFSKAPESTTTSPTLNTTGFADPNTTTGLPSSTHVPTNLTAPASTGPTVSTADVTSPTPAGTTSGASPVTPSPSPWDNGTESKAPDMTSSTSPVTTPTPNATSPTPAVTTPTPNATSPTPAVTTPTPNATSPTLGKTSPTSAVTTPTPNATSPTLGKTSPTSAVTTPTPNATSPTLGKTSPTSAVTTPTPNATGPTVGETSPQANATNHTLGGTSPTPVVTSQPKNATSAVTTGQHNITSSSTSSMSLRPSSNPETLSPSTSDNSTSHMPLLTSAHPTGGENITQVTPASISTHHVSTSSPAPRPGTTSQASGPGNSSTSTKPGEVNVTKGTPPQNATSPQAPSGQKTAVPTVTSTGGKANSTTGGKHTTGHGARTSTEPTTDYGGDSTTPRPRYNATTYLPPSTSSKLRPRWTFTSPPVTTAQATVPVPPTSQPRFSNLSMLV

B1: humanized E1D1: humanized anti-EBV gH/gL antibody E1D1; SEQ ID NOs: 185 and 186 (antibody, V domains shown)
VH: EVQLVESGGGLVQPGGSLRLSCAASGYTFTDYVISWVRQSPGKGLEWIGEIYPESGNTYYADSVKGRATLSADKSKNTAYLQMNSLRAEDTAIYFCAEGYAMDFWGQGTLVTVSS
VL: DIQMTQSPILLSASVGDRVTITCRSSQSLLHSNGNTYLHWYQQRTNGSPRLLIYKVSNRFSGVPSRFSGSGSGTDFTLTISSLQPEDEADYFCSQSIHVPRTFGAGTKVEIKR
Regarding B1, the “binding specificity to EBV gH/gL by flow cytometry” value in assay [1] is given as “did not affect its binding specificity to EBV gH/gL”.

B2: HB17: murine anti-EBV gp350 mAb, IgG2b κ; SEQ ID NO: 126 / 127; non-nAb (antibody, V domains shown)
VH: AELVIPGASVKVSCKASGYTFTSYWIHWVKQWPGQGLEWIGEINPNNGHTNYNEKFKSKATLTVDKSSSTAYMQLSSLTSEDSAVYYCARNLFYYSRPDYWGQGTSVTVSSAKTTPPSVYPLAPGCGDTTGSSVTLG
VL: SSLSASLGDRVTISCRASQDIGNYLNWYQQKPDGTIKLLIYYTSRLHSGVPSRFSGSGSGTDYSLTISNLEEEDIATYFCQQGNTLPPTFGGGTKLEIKRADAAPTV
modifications: heavy chain mAb HB17; light chain mAb HB17
notes: murine anti-EBV gp350 mAb, IgG2b κ; non-nAb
Regarding B2, the “blocking of EBV infection of Raji cells (in words)” value in assay [2] (protein G and size-exclusion chromatography-purified mAbs, 12.5-100 μg/ml) is given as “Neither HB17, HB22, nor 54A1 blocked EBV infection”. The “neutralization of EBV in Raji cells (in words)” value in assay [2] (spin-column purified mAbs, 12.5, 25, 50 and 100 μg/ml) is “failed to neutralize EBV infection”. In addition, the “competitive binding versus m72A1 and h72A1 (in words)” value in assay [3] was “little to no competitive binding”. In assay [4], the “ELISA binding to purified EBV gp350/220” value is listed as “+”. Moreover, the “type of gp350 epitope recognized (linear / conformational)” value in assay [5] is “recognized both linear and conformational epitopes”.
